Results taken from paper PMC5430633, “Phosphorylation of the mitochondrial autophagy receptor Nix enhances its interaction with LC3 proteins” (Scientific Reports, 2017).

Target: LC3B (UniProt Q9GZQ8)
Assay: NMR titration of labelled LC3B
Settings: reference: unphosphorylated peptide P0; sites S34,S35

- KD: stronger; reference ~100
Substance: Nix (from UniProt O60238) pS34 pS35 peptide P2
